From the nanobody polyreactivity screen of Harvey et al. (2022)

Test: yeast display, Sf9 membrane polyspecificity reagent, FACS + sequencing; frameworks hold sequencing errors
Method in brief: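 A synthetic nanobody library was expressed on Saccharomyces cerevisiae BJ5465 by galactose induction for 36–48 hours. The library was stained for 1 hour at 4 °C with 10% biotinylated, detergent-solubilized Sf9 membrane reagent and enriched with streptavidin microbeads before FACS. Low and high (top ~1%) gates were set on anti-HA fluorescence for expression and streptavidin fluorescence for reagent binding, and each polyreactivity label reflects the gate of origin.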

Row | Sequence | polyreactivity (PSR sort gate)
1 | QVQLVESRGGLVQAGGSLRLSCAASGLIFASYAMGWNRQAPGKERELVAAISWSGGSTYYADSVKGRFTISRDNAKNTVYLQMNSLKPEDTAVYYCAAKRYAYGSLDYWGQGTQLTVSS | high polyreactivity
2 | QVQLVESRGGLVQAGGSLRLSCAASGLTFLYNAMGWYRQAPGKERELVAAISQSAGSTYYADSVKGRFTISRDNAKNTVYLQMNSLKPEDTAVYYCAAEWDTPDLVIYDYWGQGTQVTVSS | low polyreactivity
3 | QVQLVESRGGLVQAGGSLRLSCAASGRIFETNTMGWYRQAPGKEREFVAAITFSGGRTNYADSVKGRFTISRDNAKNTDYLPMNSLKPEDTAVYYCAAAGRRRKYYYWGQGTQVTVSS | high polyreactivity
4 | QVQLVESRGGLVQAGGSLRLSCAASGRIFRYNAMGWDRQAPGKERELVAAITRSGGRTYYADSVKGRFTISRDNAKNTVYLQMNSLKPEDTAVYYCAADKYPSSPYVGDVDYWGQGTQVTVSS | high polyreactivity
5 | QVQLVESRGGLVQAGGSLRLSCAASGRIFYGYAMGGYRQAPGKERELVAGISKRGGTTRYADSVKGRFTISRDNAKNTVYLQMNSLKPEETAVSSCAAESFGLYASPGEEYWGQGTQVTVSS | high polyreactivity
6 | QVQLVESRGGLVQAGGSLRLSCAASGRTFLYNAMGWYRQAPGKERELVAAITDGGNTYYADSVKGRFTISRDNAKNTVYLHMKSLNPEDTAVYYCNAYVLFYTYFTRGRFDFDYWGQGTQVTVSS | low polyreactivity
7 | QVQLVESRGGLVQAGGSLRLSCAASGRTRFYAMGRYIQAPGKERELVAVINASGDSTYYADSVKGRFTISRDNAKITVYLQMNSLKPEDTAVYYCAGDNRGEYDYWGQGTQVTVSS | low polyreactivity
8 | QVQLVESRGGLVQAGGSLRLSCAASGSIFGTNAMGRNRQAPGKERELVAAINSGGSTNYADSVKGRFTISRDNAKNTVYLQMNSLKPEDTAVYYCAADEGLWSPSRNAYDYDYWGQGTQVTVSS | low polyreactivity
9 | QVQLVESRGGLVQAGGSLRLSCAASGSIFRGYAMGWYRQAPGKERELVAAIRRGVITNYADSVKGRFTISRDNAKNTVYLQMNSLKPEDTAVYYCYAVRRWRTSQFDYWGQGTLVTVSS | low polyreactivity
10 | QVQLVESRGGLVQAGGSLRLSCAASGSTFNYYVMGWYRQAPGKERELVAAISRSGTSTYYADSVKGRFTISRDNAKNTVYLQMNSLKPEDTAVYYCAAYQPYYARTELDYWGQGTQVTVSS | high polyreactivity
11 | QVQLVESRGGLVQAGGSLRLSCAASGSTFRYYAMGWYRQAPGKERELVATITARGGSTYADSVKGRFTISRDNAKNTVYLQMNSLKPEDTAVYYCAKRYGRYWDSTYSGDYDYWGQGTQVTVSS | high polyreactivity
12 | QVQLVESRGGLVQAGGSLRLSCAASGSTFYIYAMGWYRQAPGKERELVAAIDWNDGSTYYADSVKGRFTISRDNAKNTVYLQMNSLKPEDTAVYYCAAAIYIYRDGTYDYWGQGTQVTVSS | high polyreactivity
13 | QVQLVESRGGLVQAGGSLRLSCAATGSIFFSNTMGWYRQAPGTEREMVAAITSTGTTNYADSVKGRFTISRDNAKKTVYLQMNSLKPEDTAVFYCAVRARRWRYNYWGQGTQVTVSS | high polyreactivity
14 | QVQLVESRGGLVQAGGSLRLSCASSGFTFSINAMGWYRQAPGNERELVASITWSGGRTYYADSVKGRFTISRDNAKNTVYLQMNSLKPEDTAVYYCAARSYGTSTYDYWGQGTQVTVSS | high polyreactivity
15 | QVQLVESRGGLVQAGGSLRLSCATSGIFVVYALGWYRQAPGKVRELVAAISSGVSTSYADSVKGRFTISRENAKNTVYLQMNSLKPEDTAVYYCNTLWGHKFIVPFRTREFYYWGQGTQVTVSS | low polyreactivity
16 | QVQLVESRGGLVQAGGSLRLSCSASGIIFEYYAMGWYRQAPGKERELVAAISSDTSTNYADSVKGRFTISRDNAKNTVYLQMNSLKPEDTAVYYCNADAYYDTYGICVGTDYDYWGQGTQVTVSS | low polyreactivity
17 | QVQLVESRGGLVQARGSLRLSCAASGRTFYPYAMGWYSPAPGKERELVATITGSGTTTYYADSVKGRFTLSRDNGNNTVYLQMNRRKPEDTAVYYSAADVWEVVTPYGTIDDDYWRQGTQVTVSS | high polyreactivity
18 | QVQLVESRGGLVQARGSLRLSCAASGSTLFRYTKGWYRQAPGKERELVAAITRSGGNTFYADSVKGRFTISRDNSKNTVYLQMNSLKPEDTAVYYCAARARYVNCQGFDYWGQVTQVTVSS | high polyreactivity
19 | QVQLVESRGRLVQAGGSLRLSCAASGSIFGTYAMGWYRHAPGKERELVAAISWSDGSTYYADSVKGRFTISRDNAKYTVYLQMNSLKPEATEVYFCSKVYRSIGANVSRYGLSYYYWGQGTQVTVSS | low polyreactivity
20 | QVQLVESRRGLVQAGGSLRLSCAASGSIFSGYVMGRYRKAPGKETELVAAITWSGGRTYYADSVKGRFTISRDYAKNTVYLQMNSLKPEDTAVYYCAKRNIKSSGYYYWGQGTQVTVSS | high polyreactivity
21 | QVQLVESRSGIVQAGRSLRLSCAASGSIFGSYVMGWYRQAPGKERELVAAITVRTGTTYYADSVKGRFTISLDNAKNTVYLQMKRLKPEDTAVYYCDSRYGPKYGYWGQGNQVTVSS | high polyreactivity
22 | QVQLVESSAGLVQAGGSLRLSCDASGSTFFYYAMGWYRQAPGKERELVAAISLSDGNTYYADSVKGRFTISRDNAKNTVYLQMNSLKPEDTAVYYCNRVGSQSMKYWGQGTQVTVSS | low polyreactivity

Row | Sequence | polyreactivity (PSR sort gate)
23 | QVQLVESSGGLVQAGGRLRLSCAASGSTFRGNAMGWYRQAPGKERELVAAITGSGGRTYYADSVKGRFTISRDNAKNTVYLQMNSLKPEDTAVYYCAARTPNIGGIYGYWGQGTQVSVSS | high polyreactivity
24 | QVQLVESSGGLVQAGGSLRLICAASGRIFSRYPMGWYRKAPGKERELVAAITYSGGNTYYADSVKGRFTISRDYAKNTVYLQMNSLKPEDTAVYYCNAYRPYYSYVSHEHYYWGQGTQVTVSS | high polyreactivity
25 | QVQLVESSGGLVQAGGSLRLSCAASGSIFPSNAMGWYRQAPGKERELVARITGGGGNTYYADSVKGRFTISRDNAKNTVYLQMNSLKPEDTAVYYCAADYTNWKTGSNEMYYWGQGTQVTVSS | low polyreactivity
26 | QVQLVESVGCLVQAGGSLRLSCAASGFNFGYNAMGWYRQAPGKERELVAAITWIGGTTYYADSVKGRFTISRYNAKYTVYLQMNILKPEDTAVDYCNALRRGVRDPYGYWGLGTQVTVSS | high polyreactivity
27 | QVQLVESVGCLVQAGGSLRLSCDASGIIFNQNTMGWYRPAPGKERQLVAAITSSVGSTYYADSVKGRFTISRDNAKNTVYLQMNSLKPEVTAVYYCAATGWVYRRSRDYWGQGTQVTVSS | low polyreactivity
28 | QVQLVESVGCLVQARGSLRLSCAASGFTFPHYAMGWYRQAPGKERELVAVISWSGSSTYYADSVKGRFTISRDNAKNTVYLKMNSLKPVVNAVYYCNTRKLYQVDYDYWGQGSQVTVSS | high polyreactivity
29 | QVQLVESVGGIVQAGGSLRLSCAASGSTRYNAMGWYIQAPGKERELVAYIRGNAGSTYYADSVKGRFTISRDNAKNTVYLQMNSLKPEDTAVYYCNARYWYRYGGYKPVGGYYWGQGTQVTVSS | high polyreactivity
30 | QVQLVESVGGLDQAGGSLPVSCAASGLTFTGYTMGWYRQAPWKERELVATISGSGGNTDYADSVKARFTISRDKAKNTVDLQMNSLKPEDTAVYYCASRRSGPLVLYYYWGQGTQVTVSS | low polyreactivity
31 | QVQLVESVGGLDQAGGSLRLTCAASVSIFRNYAMGWYRQAPGKERELVASIRYSGGRTNYADSVKGRFTISRDNAKNTVYVPMNSLTPEDTAVYYCAAATHYWYFYSFKDKSGFRGYYWGQGTHVTVSS | high polyreactivity
32 | QVQLVESVGGLFQAGGSLRLSCAASGSTFDYYSMVWYRQAPGKERELVAGIDSAGSTNYADSVKGRFTISRDNAKNTVYLQMNSLKTGRYRGLYCNVGKTITTYAFPTFDYWGQGTQVTVSS | low polyreactivity
33 | QVQLVESVGGLFQAGRSLRLSGAASGTTFVWNAMGWYRPAPGKERELVATITLSTGSTYYADSVKGRFTISRDNAKNSVYLQMNSLKPEDTAVYYGNTEIYVDIISDYGYWGQGTQVTVSS | low polyreactivity
34 | QVQLVESVGGLLQAGGSLRVSCAASGFTFYRYAMGWYRQAPGKERELVAAITRGGSTNYADSVKRRFTISRDNAKKTVYLQMNSLKPEDTAVYYCAVVSQRTPLRGDYWGQGTQVTVSS | high polyreactivity
35 | QVQLVESVGGLVEAGGSLRLSCASSGFISSHYAMGWYRQAPGKESELVAAITSGGSTYYADSVKGRFTISRDNAKNTVYLQMNSLKPEDTAVYYCAAYYRRWPRRYDYWGQGTQVTVSS | high polyreactivity
36 | QVQLVESVGGLVEAGRILRLSCAATGSTFPYNDLGWYRQAPGKQRELVADISGDSGSTYYADSVKGRFTISRDNAKNTVYLQMKSLKPEDTAVYYCAAEGLHYAGDYGTGYDNWGQGTQLTVSS | low polyreactivity
37 | QVQLVESVGGLVQAGGCLRITCAASGSTSDANAMGWYRTATGKERELVAAITTGGSTNYADSVKGRFTISRDNAKNTVFLQMNSLKPEDTAVFYCAVDLLRMTGDRGHDYWGQGTQVTVSS | low polyreactivity
38 | QVQLVESVGGLVQAGGILRLSCAASGRTFTLNAMGWYRQAPGKERELVATISRRGGSTYYADSVKGRFTISRDNAKNTVYLQMISLKPEDTAVYDCNVDRLGKRYDNWGQGSQVTVSS | low polyreactivity
39 | QVQLVESVGGLVQAGGILRLSCAASGYTFGGSAKGWYRPAPGKERELVAAITRRGGSTYYADSVKGRFTISRDNAKNTVYLQMNSLKPEDTAVYYCAKRSGSYSYPAVGGWGLGYWGHGTQVTVSS | high polyreactivity
40 | QVQLVESVGGLVQAGGRLRLSCAASAFIFTSYAMGLYRQAPGKDRELVAAISKRGGSTYYADSVKGRFTISRDYAKNTDYLQMHSLKPEDTAVYYCATRYPQPYSPGYSYDYWGQGTQVTVSS | high polyreactivity
41 | QVQLVESVGGLVQAGGSLPLTCAASGYTIGPNVMGWYRQAPGKERELVASITSGTSTYYADSVKGRFTISRDNAKNTVYLQMNSLKPEDTAVYYCAAKYSFGRTRWYGYWGQGTQVTVSS | high polyreactivity
42 | QVQLVESVGGLVQAGGSLRLICAASGSIFDLNAMGWYRQAPGKEREFVAAISSGGGTYYADSVKGRFTISRDNAKNTVYLQKNSLKPEDTAVYYCAFELPELYYYFAYEYWGQGTQVTVSS | high polyreactivity
43 | QVQLVESVGGLVQAGGSLRLRCSASGSIFKYNAMGWYRQAPGKVRELVADITRSGGRTYYADSVKGRFTISRDNEKNTVYVQMNSLKTEDTAVYYCYAVTPTTLGDYWGQGTQVTVSS | high polyreactivity
